This note sets out measurements from ChEMBL document CHEMBL4043061, “Potent, Selective, Allosteric Inhibition of Human Plasmin by Sulfated Non-Saccharide Glycosaminoglycan Mimetics” (J Med Chem, 2017).

Substrate in data set [1]: O=c1c(OS(=O)(=O)O)c(-c2ccc(OS(=O)(=O)O)c(OS(=O)(=O)O)c2)oc2cc(OS(=O)(=O)O)cc(OCc3ccc(COc4cc(OS(=O)(=O)O)cc5oc(-c6ccc(OS(=O)(=O)O)c(OS(=O)(=O)O)c6)c(OS(=O)(=O)O)c(=O)c45)cc3)c12
The note with it: Homo sapiens; 8 uM.
Description: Uncompetitive allosteric inhibition of human plasmin assessed as substrate Km at 8 uM using chromogenic substrate spectrozyme PL by Michaelis-Menten plot analysis

Substrate in data set [2]: O=c1c(O)c(-c2ccc(O)c(O)c2)oc2cc(O)cc(OCc3ccc(COc4cc(O)cc5oc(-c6ccc(O)c(O)c6)c(O)c(=O)c45)cc3)c12
The note with it: Homo sapiens; 240 uM.
Description: Uncompetitive allosteric inhibition of human plasmin assessed as substrate Km at 240 uM using chromogenic substrate spectrozyme PL by Michaelis-Menten plot analysis

Substrate in data set [3]: O=c1c(OS(=O)(=O)O)c(-c2ccc(OS(=O)(=O)O)c(OS(=O)(=O)O)c2)oc2cc(OS(=O)(=O)O)cc(OCc3ccc(COc4cc(OS(=O)(=O)O)cc5oc(-c6ccc(OS(=O)(=O)O)c(OS(=O)(=O)O)c6)c(OS(=O)(=O)O)c(=O)c45)cc3)c12
The note with it: Homo sapiens; 40 uM.

Substrate in data set [4]: O=c1c(O)c(-c2ccc(O)c(O)c2)oc2cc(O)cc(OCc3ccc(COc4cc(O)cc5oc(-c6ccc(O)c(O)c6)c(O)c(=O)c45)cc3)c12
The note with it: Homo sapiens; 100 uM.

Substrate in data set [5]: O=c1c(OS(=O)(=O)O)c(-c2ccc(OS(=O)(=O)O)c(OS(=O)(=O)O)c2)oc2cc(OS(=O)(=O)O)cc(OCc3ccc(COc4cc(OS(=O)(=O)O)cc5oc(-c6ccc(OS(=O)(=O)O)c(OS(=O)(=O)O)c6)c(OS(=O)(=O)O)c(=O)c45)cc3)c12
The note with it: Homo sapiens; 1.6 uM.
Description: Uncompetitive allosteric inhibition of human plasmin assessed as Vmax for substrate hydrolysis at 1.6 uM using chromogenic substrate spectrozyme PL by Michaelis-Menten plot analysis

Substrate in data set [6]: O=c1c(OS(=O)(=O)O)c(-c2ccc(OS(=O)(=O)O)c(OS(=O)(=O)O)c2)oc2cc(OS(=O)(=O)O)cc(OCc3ccc(COc4cc(OS(=O)(=O)O)cc5oc(-c6ccc(OS(=O)(=O)O)c(OS(=O)(=O)O)c6)c(OS(=O)(=O)O)c(=O)c45)cc3)c12
The note with it: Homo sapiens; 200 uM.

Substrate in data set [7]: O=c1c(OS(=O)(=O)O)c(-c2ccc(OS(=O)(=O)O)c(OS(=O)(=O)O)c2)oc2cc(OS(=O)(=O)O)cc(OCc3ccc(COc4cc(OS(=O)(=O)O)cc5oc(-c6ccc(OS(=O)(=O)O)c(OS(=O)(=O)O)c6)c(OS(=O)(=O)O)c(=O)c45)cc3)c12
The note with it: Homo sapiens; 100 uM.

Substrate in data set [8]: O=c1c(O)c(-c2ccc(O)c(O)c2)oc2cc(O)cc(OCc3ccc(COc4cc(O)cc5oc(-c6ccc(O)c(O)c6)c(O)c(=O)c45)cc3)c12
The note with it: Homo sapiens; 240 uM. This is another data set of the same source.
Description: Competitive allosteric inhibition of human plasmin assessed as Vmax for substrate hydrolysis at 240 uM using chromogenic substrate spectrozyme PL by Michaelis-Menten plot analysis

Substrate in data set [9]: O=c1c(O)c(-c2ccc(O)c(O)c2)oc2cc(O)cc(OCc3ccc(COc4cc(O)cc5oc(-c6ccc(O)c(O)c6)c(O)c(=O)c45)cc3)c12
The note with it: Homo sapiens; 100 uM. The source holds these as a separate data set.

Substrate in data set [10]: O=c1c(OS(=O)(=O)O)c(-c2ccc(OS(=O)(=O)O)c(OS(=O)(=O)O)c2)oc2cc(OS(=O)(=O)O)cc(OCc3ccc(COc4cc(OS(=O)(=O)O)cc5oc(-c6ccc(OS(=O)(=O)O)c(OS(=O)(=O)O)c6)c(OS(=O)(=O)O)c(=O)c45)cc3)c12
The note with it: Homo sapiens; 1.6 uM. The source holds these as a separate data set.
Description: Uncompetitive allosteric inhibition of human plasmin assessed as substrate Km at 1.6 uM using chromogenic substrate spectrozyme PL by Michaelis-Menten plot analysis

Substrate in data set [11]: O=c1c(OS(=O)(=O)O)c(-c2ccc(OS(=O)(=O)O)c(OS(=O)(=O)O)c2)oc2cc(OS(=O)(=O)O)cc(OCc3ccc(COc4cc(OS(=O)(=O)O)cc5oc(-c6ccc(OS(=O)(=O)O)c(OS(=O)(=O)O)c6)c(OS(=O)(=O)O)c(=O)c45)cc3)c12
The note with it: Homo sapiens; 200 uM. The source holds these as a separate data set.

Substrate in data set [12]: O=c1c(O)c(-c2ccc(O)c(O)c2)oc2cc(O)cc(OCc3ccc(COc4cc(O)cc5oc(-c6ccc(O)c(O)c6)c(O)c(=O)c45)cc3)c12
The note with it: Homo sapiens; 400 uM.

Substrate in data set [13]: O=c1c(OS(=O)(=O)O)c(-c2ccc(OS(=O)(=O)O)c(OS(=O)(=O)O)c2)oc2cc(OS(=O)(=O)O)cc(OCc3ccc(COc4cc(OS(=O)(=O)O)cc5oc(-c6ccc(OS(=O)(=O)O)c(OS(=O)(=O)O)c6)c(OS(=O)(=O)O)c(=O)c45)cc3)c12
The note with it: Homo sapiens; 8 uM. The source holds these as a separate data set.
Description: Uncompetitive allosteric inhibition of human plasmin assessed as Vmax for substrate hydrolysis at 8 uM using chromogenic substrate spectrozyme PL by Michaelis-Menten plot analysis

Substrate in data set [14]: O=c1c(OS(=O)(=O)O)c(-c2ccc(OS(=O)(=O)O)c(OS(=O)(=O)O)c2)oc2cc(OS(=O)(=O)O)cc(OCc3ccc(COc4cc(OS(=O)(=O)O)cc5oc(-c6ccc(OS(=O)(=O)O)c(OS(=O)(=O)O)c6)c(OS(=O)(=O)O)c(=O)c45)cc3)c12
The note with it: Homo sapiens; 40 uM. This is another data set of the same source.

Substrate in data set [15]: O=c1c(OS(=O)(=O)O)c(-c2ccc(OS(=O)(=O)O)c(OS(=O)(=O)O)c2)oc2cc(OS(=O)(=O)O)cc(OCc3ccc(COc4cc(OS(=O)(=O)O)cc5oc(-c6ccc(OS(=O)(=O)O)c(OS(=O)(=O)O)c6)c(OS(=O)(=O)O)c(=O)c45)cc3)c12
The note with it: Homo sapiens; 100 uM. This is another data set of the same source.

Substrate in data set [16]: O=c1c(O)c(-c2ccc(O)c(O)c2)oc2cc(O)cc(OCc3ccc(COc4cc(O)cc5oc(-c6ccc(O)c(O)c6)c(O)c(=O)c45)cc3)c12
The note with it: Homo sapiens; 400 uM. This is another data set of the same source.

B1: Plasminogen (Homo sapiens), P00747 (protein)
chain: MEHKEVVLLLLLFLKSGQGEPLDDYVNTQGASLFSVTKKQLGAGSIEECAAKCEEDEEFTCRAFQYHSKEQQCVIMAENRKSSIIIRMRDVVLFEKKVYLSECKTGNGKNYRGTMSKTKNGITCQKWSSTSPHRPRFSPATHPSEGLEENYCRNPDNDPQGPWCYTTDPEKRYDYCDILECEEECMHCSGENYDGKISKTMSGLECQAWDSQSPHAHGYIPSKFPNKNLKKNYCRNPDRELRPWCFTTDPNKRWELCDIPRCTTPPPSSGPTYQCLKGTGENYRGNVAVTVSGHTCQHWSAQTPHTHNRTPENFPCKNLDENYCRNPDGKRAPWCHTTNSQVRWEYCKIPSCDSSPVSTEQLAPTAPPELTPVVQDCYHGDGQSYRGTSSTTTTGKKCQSWSSMTPHRHQKTPENYPNAGLTMNYCRNPDADKGPWCFTTDPSVRWEYCNLKKCSGTEASVVAPPPVVLLPDVETPSEEDCMFGNGKGYRGKRATTVTGTPCQDWAAQEPHRHSIFTPETNPRAGLEKNYCRNPDGDVGGPWCYTTNPRKLYDYCDVPQCAAPSFDCGKPQVEPKKCPGRVVGGCVAHPHSWPWQVSLRTRFGMHFCGGTLISPEWVLTAAHCLEKSPRPSSYKVILGAHQEVNLEPHVQEIEVSRLFLEPTRKDIALLKLSSPAVITDKVIPACLPSPNYVVADRTECFITGWGETQGTFGAGLLKEAQLPVIENKVCNRYEFLNGRVQSTELCAGHLAGGTDSCQGDSGGPLVCFEKDKYILQGVTSWGLGCARPNKPGVYVRVSRFVTWIEGVMRNN
What is called Km is the concentration of substrate that gives half-maximal velocity. Take B1: the Km in data set [1] was found to be 20 µM; in [2], 807 µM; in data set [3] it was 20 µM; in data set [4] it was 357 µM; in [7], 8 µM; in [10], 50 µM. The Km turned out to be 4 µM in data set [11] and 1120 µM in data set [12]. Moreover, the Vmax came out at 36.3 mAU/min in [5]; 10.4 mAU/min in data set [6]; 51.7 mAU/min in [8]; 51 mAU/min in data set [9]; 29 mAU/min in [13]; 22.1 mAU/min in data set [14]. Moreover, the Vmax stood at 15.1 mAU/min in [15] and 51.3 mAU/min in [16].
